Patent US8067187 (CROSSBETA BIOSCIENCES B V, dated 2011)

T1: human factor XII from plasma (Calbiochem) (human, UniProt P00748 20-615)
T1 construct: also called FXII
T1 sequence (looked up): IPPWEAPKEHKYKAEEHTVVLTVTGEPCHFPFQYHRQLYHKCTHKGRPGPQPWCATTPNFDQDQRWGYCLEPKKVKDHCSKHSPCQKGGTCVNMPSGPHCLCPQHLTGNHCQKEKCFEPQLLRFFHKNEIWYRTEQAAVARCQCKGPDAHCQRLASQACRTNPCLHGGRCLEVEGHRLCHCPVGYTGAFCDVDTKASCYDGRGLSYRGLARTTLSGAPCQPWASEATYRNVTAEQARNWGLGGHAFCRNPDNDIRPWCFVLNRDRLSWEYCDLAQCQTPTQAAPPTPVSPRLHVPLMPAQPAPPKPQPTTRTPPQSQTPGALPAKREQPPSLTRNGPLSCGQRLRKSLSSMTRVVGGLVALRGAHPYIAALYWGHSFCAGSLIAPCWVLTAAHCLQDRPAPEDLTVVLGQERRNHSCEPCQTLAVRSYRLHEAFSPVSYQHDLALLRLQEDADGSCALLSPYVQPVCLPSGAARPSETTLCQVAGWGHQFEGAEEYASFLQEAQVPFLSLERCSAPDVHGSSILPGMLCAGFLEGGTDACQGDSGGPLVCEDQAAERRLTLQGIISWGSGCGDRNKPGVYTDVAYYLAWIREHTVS

B1: recombinant human β2-glycoprotein I (other, UniProt P02749 20-345, looked up)
chain: GRTCPKPDDLPFSTVVPLKTFYEPGEEITYSCKPGYVSRGGMRKFICPLTGLWPINTLKCTPRVCPFAGILENGAVRYTTFEYPNTISFSCNTGFYLNGADSAKCTEEGKWSPELPVCAPIICPPPSIPTFATLRVYKPSAGNNSLYRDTAVFECLPQHAMFGNDTITCTTHGNWTKLPECREVKCPFPSRPDNGFVNYPAKPTLYYKDKATFGCHDGYSLDGPEEIECTKLGNWSAMPSCKASCKVPVKKATVVYQGERVKIQEKFKNGMLHGDKVSFFCKNKEKKCSYTEDAQCIDGTIEVPKCFKEHSSLAFWKTDASDVKPC
notes: also called recombinant β2GPI; rβ2GPI
B2: amyloid fibrin peptide FP13 K157G (peptide)
peptide: KRLEVDIDIGIRS
notes: Preparation with cross-β structure; also called amyloid FP13 K157G

What was measured:
[1] = biological target: T1, human factor XII from plasma …; experiment: ELISA, immobilized factor XII overlaid with a concentration series of β2GPI
[2] = biological target: T2, anti-β2GPI auto-antibodies purified from plasma of patients with the Anti-phospholipid syndrome; experiment: competition ELISA: patient anti-β2GPI auto-antibodies with a β2GPI series in solution on immobilized plasma β2GPI
T2 construct: Polyclonal mixture; also called patient antibodies
Procedure: C. […] Eluted fractions are analyzed on Western blot after SDS-PA electrophoresis. […] Anti-β₂GPI auto-antibodies were purified from plasma of patients with the autoimmune disease Anti-phospholipid syndrome.

[3] = biological target: T3, tissue-type plasminogen activator (tPA, Actilyse, Boehringer-Ingelheim) (human, UniProt P00750 36-562); experiment: ELISA, immobilized tPA overlaid with a concentration series of β2GPI
T3 construct: Commercial product; also called recombinant human tPA

[4] = biological target: T3, tissue-type plasminogen activator (tPA, …); experiment: tPA binding (data not shown)

T3 sequence (P00750 36-562 limits assumed): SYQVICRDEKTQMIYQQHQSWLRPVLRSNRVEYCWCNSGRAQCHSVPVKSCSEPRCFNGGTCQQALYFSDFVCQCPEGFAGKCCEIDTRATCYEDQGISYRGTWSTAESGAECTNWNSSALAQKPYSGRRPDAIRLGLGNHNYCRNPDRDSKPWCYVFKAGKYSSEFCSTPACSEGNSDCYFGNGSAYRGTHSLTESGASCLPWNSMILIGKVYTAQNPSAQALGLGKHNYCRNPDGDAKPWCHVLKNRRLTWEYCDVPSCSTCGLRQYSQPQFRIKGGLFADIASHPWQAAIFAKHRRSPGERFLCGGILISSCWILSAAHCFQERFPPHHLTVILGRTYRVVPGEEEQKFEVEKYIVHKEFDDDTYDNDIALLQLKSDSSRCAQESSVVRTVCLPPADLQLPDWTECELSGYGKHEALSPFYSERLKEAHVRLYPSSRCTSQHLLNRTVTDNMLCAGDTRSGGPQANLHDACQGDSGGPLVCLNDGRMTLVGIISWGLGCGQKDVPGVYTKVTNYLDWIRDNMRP

Binder | Kd [1] | IC50 (read off the curve) [2] | Kd [3] | binding result [4]
B1 | 20 nM | ~5 µg/mL | 51 nM | –
B2 | – | – | – | binds
